In patent US20210179666A1, “CYCLIC PEPTIDES AND METHODS OF USE THEREOF” (Regents of the University of Minnesota, priority 2019, published 2021):

Biological target: human melanocortin 4 receptor (human) (UniProt P32245)
Assay: cell-based or functional assay

human melanocortin 4 receptor (human), sequence (P32245 whole entry): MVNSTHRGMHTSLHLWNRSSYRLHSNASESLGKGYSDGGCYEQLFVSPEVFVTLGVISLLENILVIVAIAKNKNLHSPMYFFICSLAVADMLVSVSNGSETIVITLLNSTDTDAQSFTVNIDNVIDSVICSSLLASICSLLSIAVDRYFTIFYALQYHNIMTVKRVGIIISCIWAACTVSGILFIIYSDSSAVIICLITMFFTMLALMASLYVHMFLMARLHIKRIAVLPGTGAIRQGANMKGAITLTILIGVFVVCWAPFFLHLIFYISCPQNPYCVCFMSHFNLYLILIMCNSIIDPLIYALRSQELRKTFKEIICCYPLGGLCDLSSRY

pA2 (Schild analysis, agonist NDP-MSH, cAMP): 8.7
Substance: AgRP (from UniProt O00253 87-132) (ligand)
